# Measurements published in publication PMC7721647, “The Human RNA Helicase DDX21 Presents a Dimerization Interface Necessary for Helicase Activity” (iScience, 2020).
# T1: DDX21ΔNC (human, UniProt Q9NR30 186-710)
# T1 sequence: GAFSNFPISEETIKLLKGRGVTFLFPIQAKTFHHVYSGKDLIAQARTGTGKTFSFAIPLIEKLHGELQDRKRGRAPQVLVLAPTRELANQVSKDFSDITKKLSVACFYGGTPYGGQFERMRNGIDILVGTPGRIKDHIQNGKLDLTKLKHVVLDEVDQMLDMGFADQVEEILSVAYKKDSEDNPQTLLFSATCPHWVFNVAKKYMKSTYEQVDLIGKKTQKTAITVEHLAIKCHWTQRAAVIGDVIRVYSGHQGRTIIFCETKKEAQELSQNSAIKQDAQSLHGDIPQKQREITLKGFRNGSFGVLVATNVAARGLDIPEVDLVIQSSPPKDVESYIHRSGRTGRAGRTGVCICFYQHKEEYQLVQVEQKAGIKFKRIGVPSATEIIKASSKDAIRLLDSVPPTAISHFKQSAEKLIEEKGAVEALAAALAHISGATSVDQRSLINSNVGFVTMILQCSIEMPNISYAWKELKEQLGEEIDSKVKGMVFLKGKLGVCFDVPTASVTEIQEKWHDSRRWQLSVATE
# T2: DDX21Core (human, UniProt Q9NR30 186-564)
# T2 sequence: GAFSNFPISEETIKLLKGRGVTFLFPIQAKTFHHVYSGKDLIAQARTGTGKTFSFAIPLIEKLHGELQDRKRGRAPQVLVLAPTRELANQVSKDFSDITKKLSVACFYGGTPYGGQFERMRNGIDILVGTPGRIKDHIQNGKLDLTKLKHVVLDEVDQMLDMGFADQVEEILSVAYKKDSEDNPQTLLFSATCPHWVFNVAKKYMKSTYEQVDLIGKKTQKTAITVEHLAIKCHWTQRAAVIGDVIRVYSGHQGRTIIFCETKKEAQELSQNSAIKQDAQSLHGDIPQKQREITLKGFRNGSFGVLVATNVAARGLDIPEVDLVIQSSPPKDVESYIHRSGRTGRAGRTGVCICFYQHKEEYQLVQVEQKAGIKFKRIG
# T3: DDX21Core-DD (human, UniProt Q9NR30 186-620)
# T3 sequence: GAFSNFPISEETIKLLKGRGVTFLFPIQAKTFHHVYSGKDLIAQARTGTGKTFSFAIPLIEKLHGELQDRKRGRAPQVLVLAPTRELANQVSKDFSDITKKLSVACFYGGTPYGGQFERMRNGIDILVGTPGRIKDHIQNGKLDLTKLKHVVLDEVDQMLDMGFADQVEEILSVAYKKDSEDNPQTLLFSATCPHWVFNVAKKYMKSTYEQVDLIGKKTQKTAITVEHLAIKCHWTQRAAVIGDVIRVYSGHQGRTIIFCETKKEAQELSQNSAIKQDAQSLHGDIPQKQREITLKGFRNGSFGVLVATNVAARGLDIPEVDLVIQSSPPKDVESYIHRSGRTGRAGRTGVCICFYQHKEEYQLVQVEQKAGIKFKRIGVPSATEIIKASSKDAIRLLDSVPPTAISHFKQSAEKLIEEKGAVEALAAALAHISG
# T4: DDX21ΔN monomer (human, UniProt Q9NR30 186-783, L611R;A612R;A613R;A614R;L615R;A616R)
# T4 sequence: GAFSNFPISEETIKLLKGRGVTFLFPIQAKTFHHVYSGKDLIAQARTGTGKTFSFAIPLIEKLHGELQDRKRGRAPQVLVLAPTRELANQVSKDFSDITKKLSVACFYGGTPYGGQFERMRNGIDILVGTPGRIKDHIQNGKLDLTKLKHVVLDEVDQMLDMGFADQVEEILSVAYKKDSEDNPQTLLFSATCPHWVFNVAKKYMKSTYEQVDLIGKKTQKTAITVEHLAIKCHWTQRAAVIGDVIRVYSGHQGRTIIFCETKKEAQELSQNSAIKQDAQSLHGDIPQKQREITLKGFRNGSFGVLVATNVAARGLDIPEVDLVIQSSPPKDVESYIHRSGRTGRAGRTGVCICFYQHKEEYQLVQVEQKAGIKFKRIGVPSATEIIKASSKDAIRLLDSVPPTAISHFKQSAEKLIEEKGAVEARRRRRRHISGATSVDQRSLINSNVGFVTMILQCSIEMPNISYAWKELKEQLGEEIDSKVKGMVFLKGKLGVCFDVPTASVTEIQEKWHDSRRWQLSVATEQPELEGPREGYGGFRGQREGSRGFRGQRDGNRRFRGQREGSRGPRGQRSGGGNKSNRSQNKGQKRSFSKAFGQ
# B1: dsRNA 15/30mer 3' overhang (dsRNA)
# RNA 1: GUUUCGGAUCGACGC
# RNA 2: GCGUCGAUCCGAAACUAUACUUAAUUUUAA
# Key:
# Assay in all cases: fluorescence polarization; FP: 50 mM Tris pH 7.5, 50 mM KCl, 5 mM MgCl2, no ATP; Hill-slope fit; temperature not given in the material
# DDX21ΔNC = molecular target: T1, DDX21ΔNC; conditions: protein: recombinant, chain copies: 2
# DDX21Core = molecular target: T2, DDX21Core; conditions: protein: recombinant
# DDX21Core-DD = molecular target: T3, DDX21Core-DD; conditions: protein: recombinant, tags: C-terminal His6, uncleavable, chain copies: 2
# DDX21ΔN monomer = molecular target: T4, DDX21ΔN monomer; conditions: protein: recombinant
# [1] = label: 5'-FAM on 15-mer, 3' overhang 15 nt
Binder,"Kd (DDX21ΔNC; label: 5'-FAM, single strand)","Kd (DDX21Core; label: 5'-FAM, single strand)","Kd (DDX21Core-DD; label: 5'-FAM, single strand)","Kd (DDX21ΔN monomer; label: 5'-FAM, single strand)",Kd (DDX21ΔNC; [1]),Kd (DDX21Core; [1]),Kd (DDX21Core-DD; [1]),Kd (DDX21ΔN monomer; [1])
GUUUCGGAUCGACGC (ssRNA) [15-mer ssRNA],688 ± 52.7 nM,1520 ± 112 nM,330 ± 19.1 nM,24.9 ± 1.7 nM,,,,
B1,,,,,217 ± 10.4 nM,353 ± 27.9 nM,143 ± 6.1 nM,122 ± 19.3 nM
